Among the data in publication PMC12014896 (2025) are Kd values, retold here.

Usually Kd stands for the free concentration of one partner at which half of the binding sites on the other are occupied at equilibrium, for simple one-to-one binding. Read a low Kd as a tighter complex.

B1: COVIC-30 (antibody, V domains shown)
VH: EVQLVESGGGLVQPGGSLRLSCAASGFTVSSNYMSWVRQAPGKGLEWVSVIYSGGSTYYADSVKGRFTISRDNSKNTLYLQMNSLRAEDTAVYYCARVEWAAAGTFYWGQGTLVTVSS
VL: QSALTQEPSLTVSPGGTVTLTCGSSTGAVTSGHYPYWFQQKPGQAPRTLIYDTSNKRSWTPARFSGSLLGGKAALTLSGAQPEDEAEYYCLLSYSGVWVFGGGTKLTVL
B2: COVIC-266 (antibody, V domains shown)
VH: EVQLVESGGGLVQPGGSLRLSCKASGISVAPHAVTWVRQAPGKGLEWIGVIASNADTYYASWAKGRFTISRDNSKNTLYLQMNSLRAEDTAVYYCARHPGSAGYGYTYYYAMDPWGQGTLVTVSS
VL: DIQMTQSPSSLSASVGDRVTITCKASEDIRYGLNWYQQKPGKAPKLLIYGANTLEAGVPSRFSGSGSGTDFTLTISSLQPEDFATYYCQQGYSTPLTFGGGTKVEIK
B3: COVIC-386 (antibody, V domains shown)
VH: B2 VH with I27Y, V29F, A30R, P31H, H32Q, V34M
VL: DIQMTQSPSSLSASVGDRVTITCQASERVFYGIDWYQQKPGKAPKLLIYGASALWHGVPSRFSGSGSGTDYTLTISSLQPEDFATYYCQQGYMVPIGFGGGTKVEIK
B4: COVIC-21 (antibody, V domains shown)
VH: EVQLLESGGGLVQPGGSLRLSCAASGFTFSDFAMAWVRQAPGKGLEWVSAISGSGDITYYADSVKGRFTISRDNSKNTLYLQMNSLRAEDTAVYYCAREADGLHSPWHFDLWGQGTLVTVSS
B5: COVIC-57 (antibody)
chain 1: QVQLQESGGGLVQAGGSLRLSCAASGRTFSEYAMGWFRQAPGKEREFVATISWSGGSTYYTDSVKGRFTISRDNAKNTVYLQMNSLKPDDTAVYYCAAAGLGTVVSEWDYDYDYWGQGTQVTVSSGGGGSGGGGSASTKGPSVFPLAPSSKSTSGGTAALGCLVKDYFPEPVTVSWNSGALTSGVHTFPAVLQSSGLYSLSSVVTVPSSSLGTQTYICNVNHKPSNTKVDKKVEPKSCDKTHTKKKPLDGEYFTLQIRGRERFEMFRELNEALELKDAQAGKEPG
chain 2: QVQLQESGGGLVQAGGSLRLSCAASGRTFSEYAMGWFRQAPGKEREFVATISWSGGSTYYTDSVKGRFTISRDNAKNTVYLQMNSLKPDDTAVYYCAAAGLGTVVSEWDYDYDYWGQGTQVTVSSGGGGSGGGGSKRTVAAPSVFIFPPSDEQLKSGTASVVCLLNNFYPREAKVQWKVDNALQSGNSQESVTEQDSKDSTYSLSSTLTLSKADYEKHKVYACEVTHQGLSSPVTKSFNRGEC
B6: COVIC-58 (antibody)
chain 1: QVQLQESGGGLVQAGGSLRLSCAASGRTFSEYAMGWFRQAPGKEREFVATISWSGGSTYYTDSVKGRFTISRDNAKNTVYLQMNSLKPDDTAVYYCAAAGLGTVVSEWDYDYDYWGQGTQVTVSSGGGGSGGGGSASTKGPSVFPLAPSSKSTSGGTAALGCLVKDYFPEPVTVSWNSGALTSGVHTFPAVLQSSGLYSLSSVVTVPSSSLGTQTYICNVNHKPSNTKVDKKVEPKSCDKTHTAPELLGGPSVFLFPPKPKDTLMISRTPEVTCVVVDVSHEDPEVKFNWYVDGVEVHNAKTKPREEQYNSTYRVVSVLTVLHQDWLNGKEYKCKVSNKALPAPIEKTISKAKGQPREPQVYTLPPSRDELTKNQVSLTCLVKGFYPSDIAVEWESNGQPENNYKTTPPVLDSDGSFFLYSKLTVDKSRWQQGNVFSCSVMHEALHNHYTQKSLSLSPGKKKKPLDGEYFTLQIRGRERFEMFRELNEALELKDAQAGKEPG
chain 2: B5 chain 2
B7: COVIC-125 (antibody)
chain 1: QVQLQESGGGLVQAGGSLRLSCAASGRTFSEYAMGWFRQAPGKEREFVATISWSGGSTYYTDSVKGRFTISRDNAKNTVYLQMNSLKPDDTAVYYCAAAGLGTVVSEWDYDYDYWGQGTQVTVSSGGSGGSQVQLQESGGGLVQAGGSLRLSCAASGRTFSEYAMGWFRQAPGKEREFVATISWSGGSTYYTDSVKGRFTISRDNAKNTVYLQMNSLKPDDTAVYYCAAAGLGTVVSEWDYDYDYWGQGTQVTVSSGGGGSGGGGSASTKGPSVFPLAPSSKSTSGGTAALGCLVKDYFPEPVTVSWNSGALTSGVHTFPAVLQSSGLYSLSSVVTVPSSSLGTQTYICNVNHKPSNTKVDKKVEPKSCDKTHTKKKPLDGEYFTLQIRGRERFEMFRELNEALELKDAQAGKEPGGGGGSGGGGSQVQLQESGGGLVQAGGSLRLSCAASGRTFSEYAMGWFRQAPGKEREFVATISWSGGSTYYTDSVKGRFTISRDNAKNTVYLQMNSLKPDDTAVYYCAAAGLGTVVSEWDYDYDYWGQGTQVTVSSGGSGGSQVQLQESGGGLVQAGGSLRLSCAASGRTFSEYAMGWFRQAPGKEREFVATISWSGGSTYYTDSVKGRFTISRDNAKNTVYLQMNSLKPDDTAVYYCAAAGLGTVVSEWDYDYDYWGQGTQVTVSS
chain 2: B5 chain 2
B8: COVIC-307 (antibody, V domains shown)
VH: QVQLVQSGAEVKKPGSSVKVSCKASGGTFGISWVRQAPGQGLEWMGRIIPILGTANHAQKFQGRVTITADKSTGTVYMELSSLRSEDTAVYYCARDGDSGSYYETLGFDYWGQGTLVTVSS
VL: QSALTQPPSASGSPGQSVTISCTGTSSDVGGYNYVSWYQQHPGKAPKLMIYEVNKRPSGVPDRFSGSKSGNTASLTVSGLQAEDEADYYCSSYAGSNNLVFGGGTKLTVL
B9: COVIC-368 (antibody, V domains shown)
VH: QVQLVQSGAEVKKPGASVKVSCKAYGYTFTSHYMHWVRQAPGQGLEWMGIIDSSGGGASYPQKFQGRVTLTRDTSSSTVYMELSSLRSEDTAVYYCAKAHSTNWYGWFDPWGQGTLVTVSS
VL: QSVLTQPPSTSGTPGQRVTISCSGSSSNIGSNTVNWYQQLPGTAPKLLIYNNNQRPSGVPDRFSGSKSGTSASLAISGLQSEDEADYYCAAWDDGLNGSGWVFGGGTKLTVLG
B10: COVIC-291 (antibody, V domains shown)
VH: EVQLVESGGGLVQPGRSLRLSCAASGFTFDDYAMHWVRQAPGKGLEWVSGISWNSDSIDYADSVKGRFTISRDNAKNSLYLQMNSLRAEDTALYYCAKDRGYEILTPASFDYWGQGTLVTVSS
VL: DIQMTQSPSSLSASVGDRVTITCRASQSISSYLNWFQHKPGKAPKLLIYGASSLQSGVPSRFSGSGSGTDFTLTISSLQPEDFATYYCQQSYSTPPYTFGQGTKLEIK
B11: COVIC-127 (antibody)
chain 1: not shown
chain 2: QVQLQESGGGLVQAGGSLRLSCAASGRTFSEYAMGWFRQAPGKEREFVATISWSGGSTYYTDSVKGRFTISRDNAKNTVYLQMNSLKPDDTAVYYCAAAGLGTVVSEWDYDYDYWGQGTQVTVSSGGSGGSQVQLQESGGGLVQAGGSLRLSCAASGRTFSEYAMGWFRQAPGKEREFVATISWSGGSTYYTDSVKGRFTISRDNAKNTVYLQMNSLKPDDTAVYYCAAAGLGTVVSEWDYDYDYWGQGTQVTVSSGGGGSGGGGSKRTVAAPSVFIFPPSDEQLKSGTASVVCLLNNFYPREAKVQWKVDNALQSGNSQESVTEQDSKDSTYSLSSTLTLSKADYEKHKVYACEVTHQGLSSPVTKSFNRGEC
B12: COVIC-126 (antibody)
chain 1: B7 chain 1
chain 2: B11 chain 2
B13: COVIC-66 (antibody)
chain: QVQLQESGGGLVQAGGSLRLSCAASGRTFSEYAMGWFRQAPGKEREFVATISWSGGSTYYTDSVKGRFTISRDNAKNTVYLQMNSLKPDDTAVYYCAAAGLGTVVSEWDYDYDYWGQGTQVTVSSGGSGGSQVQLQESGGGLVQAGGSLRLSCVASGSIFSINAMDWYRQAPGKQRELVAGITSGGSTNYGDFVKGRFTISRDNAKNTVYLQMDSLKPEDTAVYYCAAEVGGWGPPRPDYWGHGTQVTVSSGGGGSGGGGSEPKSCDKTHTCPPCPAPELLGGKKKPLDGEYFTLQIRGRERFEMFRELNEALELKDAQAGKEPG
B14: COVIC-54 (antibody, V domains shown)
VH: QVQLQESGGGLVQAGGSLRLSCAASGRTFSEYAMGWFRQAPGKEREFVATISWSGGSTYYTDSVKGRFTISRDNAKNTVYLQMNSLKPDDTAVYYCAAAGLGTVVSEWDYDYDYWGQGTQVTVSS
B15: COVIC-95 (antibody, V domains shown)
VH: EVQLVESGGGLVQPGGSLRLSCAASGQTFNMGWFRQAPGKEREFVAAIGSGGSTSYADSVKGRFTISADNSKNTAYLQMNSLKPEDTAVYYCWRLGNDYFDYWGQGTLVTVSS
B16: COVIC-321 (antibody)
chain 1: not shown
chain 2: EVQLLESGGGLVQPGGSLRLSCAASGRTFSEYAMGWFRQAPGKGLEFVSTISWSGGSTYYADSVKGRFTISRDNSKNTLYLQMNSLRAEDTAVYYCAAAGLGTVVSEWDYDYDYWGQGTLVTVSSGGGGSGGGGSKRTVAAPSVFIFPPSDEQLKSGTASVVCLLNNFYPREAKVQWKVDNALQSGNSQESVTEQDSKDSTYSLSSTLTLSKADYEKHKVYACEVTHQGLSSPVTKSFNRGEC

Positions count from the first letter of the chain named.

The target in the experiment is SARS-CoV-2 spike RBD (Wuhan-Hu-1) (Severe acute respiratory syndrome …, UniProt P0DTC2). Briefly: SPR. (In general: Surface plasmon resonance follows binding to a sensor surface in real time, without labels.)
For the molecule B1, the Kd came to 4.1 nM.

B2 returned a Kd of 2.41 nM.

On to B3, for which the Kd was determined as 0.177 nM.

B4 displayed a Kd of 0.208 nM.

For the molecule B5, binding was characterised by a dissociation constant (Kd) of 204 nM.

The molecule B6 showed a Kd of 139 nM.

As for B7, binding was characterised by a dissociation constant (Kd) of 184 nM.

B8 showed a Kd of 2.36 nM.

B9 had a Kd of 0.436 nM.

B10 returned a Kd of 6.83 nM.

With B11, binding was characterised by a dissociation constant (Kd) of 106 nM.

B12 had a Kd of 139 nM.

B13 registered a Kd of 140 nM.

Consider B14, for which the Kd was 244 nM.

The molecule B15 registered a dissociation constant (Kd) of 27.5 nM.

On to B16, for which the Kd was 30 nM.
